Here are results for 1 molecule from patent US10344301, “Mutants of the bacteriophage lambda integrase” (AGENCY FOR SCIENCE, TECHNOLOGY AND RESEARCH).

The target of the series is T1, C3-HIS integrase (E. coli minicircle) (Bacteriophage lambda, UniProt P03700 SEQ:1-356).
T1 chain: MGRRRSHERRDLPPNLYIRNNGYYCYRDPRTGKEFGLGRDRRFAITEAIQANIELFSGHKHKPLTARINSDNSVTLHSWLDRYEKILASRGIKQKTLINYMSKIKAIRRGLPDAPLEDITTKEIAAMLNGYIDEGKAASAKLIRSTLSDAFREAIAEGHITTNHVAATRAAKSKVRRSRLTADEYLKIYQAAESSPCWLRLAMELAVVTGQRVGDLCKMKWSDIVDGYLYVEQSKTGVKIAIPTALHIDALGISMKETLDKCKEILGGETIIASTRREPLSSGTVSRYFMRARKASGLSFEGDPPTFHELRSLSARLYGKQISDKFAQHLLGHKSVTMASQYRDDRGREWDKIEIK
Kind of series: cell_activity; E. coli TG1 chromosomal attB integration; 27 colonies, ~90% correct. To be noted: tags: His tag. From the text: The present example follows the methodology depicted in FIG. 2. C3INT-HIS-PET22b(+) was amplified with petF2 (SEQ ID NO: 10) and petR (SEQ ID NO: 11) and the PCR product subsequently intramolecularly ligated to produce a C3INT-HIS minicircle. attP-PET22b(+) was amplified with attP-F (SEQ ID NO: 12) and attPSOE-R (SEQ ID NO: 13) while PET22b(+) was amplified with TEM1prom-F (SEQ ID NO: 14) and TEM1promR (SEQ ID NO: 15) which produced PCR products encoding attP and ampicillin-resistant gene respectively. Splice overlap extension PCR (SOE-PCR) was carried out with these two PCR products using attP-F (SEQ ID NO: 12) and TEM1prom-R (SEQ ID NO: 15). The PCR product was subsequently intramolecularly ligated to produce attP-TEM1 minicircle. 100 ng of C3INT-HIS minicircle and 100 ng attP-TEM1 minicircle were combined and electroporated to 25 μL electrocompetent TG1 cells. The cells were allowed to recover for 1 hr before being plated on varying concentrations of ampicillin-LB agar plates (0.01 mg/mL, 0.02 mg/mL, 0.05 mg/mL, 0.07 mg/mL and 0.1 mg/mL). Incubation was carried out at 37° C. for 12-14 hrs to allow for expression of C3 integrase and chromosomal integration of the ampicillin-resistance cassette by C3 integrase. […]

B1: attB ; attP (dsDNA ; dsDNA)
DNA 1: CTGCTTTTTTATACTAACTTG
DNA 2: CAAGTTAGTATAAAAAAGCAG
DNA 3: CAGCTTTTTTATACTAAGTTG
DNA 4: CAACTTAGTATAAAAAAGCTG
B1 returned a binding signal of about 12 fold vs Int-h/218.
